Assay results as given in the supplement of paper PMC10567573.

B1: TMEM192 (parent)
chain: ILGKVILWILHLLLECYIQYHHSK
B2: OAS1 (parent)
chain: TPAKSLDKFIEDYLLPDTCFRMQI

Variants of: B1
Assay: protein stability index of a GFP-peptide fusion (GPS, HEK-293T) (PSI 1-6); higher = more stable
Details: c terminus: a fixed tail appended
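Further: lentivirally expressed fusions sorted by FACS into six bins by GFP to DsRed ratio, PSI derived from sequencing read proportions per bin multiplied by bin number.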

Protein stability index, by site and new letter:
C16: K 3.66, P 2.88, T 3.84, F 2.6, E 2.48, Y 3.21, M 3.3, D 2.6, A 3.38, G 3.5, Q 2.86, I 2.95, N 3.32, S 5.42, W 2.31
S23: F 2.9, V 4.52, G 3.2, I 2.68, K 2.82, Y 2.72, E 2.49, N 4.27, L 3.84, D 2.57, W 3.3, M 2.49, Q 2.32, P 1.54, R 3.3, A 2.08
Q19: E 3.03, V 3.16, G 3.15, K 2.25, C 3.13, F 2.49, D 3.64, H 2.44, L 4.51, Y 3.49, N 2.91, P 2.26, I 2.76, M 2.97, W 2.36, T 2.57, A 2.58, R 2.9
L14: F 2.75, K 2.31, P 3.38, V 4.41, I 3.72, W 1.68, M 2.95, Q 2.28, T 3.98, N 3.68, E 3.72, S 2.43, H 3.19, Y 3.51, G 3.05, D 3.16, A 2.08, R 2.71, C 2.25
H21: W 2.55, G 3.35, V 3.35, E 3, T 2.54, Y 4.47, D 4.02, F 3.45, L 2.36, R 1.92, M 2.86, N 1.95, K 3.49, I 3.57, S 2.67, P 2.65
K24: C 2.89, D 2.86, W 3.65, N 3.06, G 3.14, I 2.38, A 2.69, M 3.05, H 2.07, T 3.66, P 3, E 3.43, L 2.65, V 2.48, R 3.46, F 3.92
Y20: L 3.1, R 1.94, A 2.9, P 3.57, Q 4.39, V 3.38, F 1.26, M 3.73, N 2.5, H 1.97, S 3.62, D 2.2, C 3.13, T 4.2, E 3.48, G 2.11, W 2.22, K 2.51
L13: T 2.88, Q 2.11, Y 2.97, F 2.5, A 3.26, P 3.39, V 2.8, W 2.21, K 2.9, M 3.1, G 2.25, I 2.04, N 3.18, H 2.83, R 2.37, C 2.76, D 2.47, S 2.98
E15: T 2.4, L 3.05, D 2.1, Q 3.19, V 3.17, H 3.19, A 3.03, P 3.23, S 2.14, C 2.82, N 3.35, G 2.81, K 2.68, Y 2.69, M 2.76, I 3.52, F 2.44
H22: E 2.6, P 2.33, L 1.94, S 3.42, Y 3.11, V 2.95, D 3.4, K 3.66, M 1.96, G 2.63, I 2.33, F 2.56, T 2.36, W 3.65, C 1.54, A 2.94
I18: H 2.59, P 2.44, N 1.48, W 3.7, T 2.31, K 3.4, S 2.74, G 2.71, Q 3.46, Y 2.24, E 2.99, D 2.61, R 2.36, C 2.4, M 2.03, F 3.01, L 3.64, V 3.96, A 4.65
Y17: W 3.9, G 3.49, S 3.71, Q 2.67, P 3.26, D 2.2, A 2.48, L 2.59, M 2.85, F 3.16, K 2.99, H 3.22, E 3.46, C 2.8, R 2.2, T 1.81, I 3.59, N 3.47

Variants of: B2
Assay: as above
Details: c terminus: a fixed tail appended

Protein stability index: each site, then its substitutions
P2: L 2.82, G 3.49, H 3.76, F 3.08, S 1.69, D 1.92, V 1.74, T 2.82, R 2.81, C 3.55, Q 2.97, I 2.16, W 3.86, N 3.68, M 3.28
K8: C 2.99, D 2.58, R 3.07, L 3.06, M 2.04, A 2.58, P 3.17, T 3.17, H 1.77, E 3.06, G 1.62, N 2.09, Q 1.68, S 2.43
K4: S 2.24, T 2.48, M 1.67, L 2.23, H 2.59, D 2.19, P 2.13, N 2.52, C 2.29, F 2.9, I 1.9, W 3.85
T1: S 2.13, G 3.6, P 2.51, A 2.48, N 3.42, H 3.45, C 2.39, L 3.21, V 1.06, K 2.84, W 2.39, E 1.7, R 4.07, I 2.59, M 1.9, Y 2.84, Q 2.42, D 1.82
A3: I 3.83, E 2.88, Y 1.96, M 2.11, V 3.63, F 3.88, P 2.49, C 3.23, S 2.42, R 2.23, D 1.54, W 2.58, K 2.57, G 3.77, L 2.85, H 2.99, Q 2.56, N 2.47, T 1.64
D7: A 2.77, L 2.42, Q 2.94, H 3.9, R 2.9, M 2.87, C 2.77, Y 2.21, T 1.25, K 2.05, P 1.73, W 3.11, S 3.08, N 2.1, I 2.96
L6: N 2.45, W 2.19, H 2.66, E 1.49, S 1.94, Q 2.47, K 1.61, Y 3, V 1.97, D 1.38, F 4.79, M 2.18, A 2.89, P 2.43, C 2.68, I 3.63, R 2.55, T 3.08
S5: M 2.42, R 3.08, V 3.06, W 1.99, K 2.14, L 3.15, I 2.43, H 1.69, E 1.74, F 1.63, T 2.86, D 2.02, Y 2.89, N 2.78, C 2.19, Q 2.4, A 2.52
